The target in assay [1] is H3 Mini-HA cluster 1+5 N405D (influenza A virus H3N2, UniProt O11283 17-566). The experiment in a line: FACS on HEK293F [D00010 FIG. 8B].
Assay [2] addresses H3 Mini-HA cluster 1+5 N405E (influenza A virus H3N2, UniProt O11283 17-566). The experiment in a line: FACS on HEK293F [D00010 FIG. 8B].
Assay [3] deals with H3 Mini-HA cluster 1+5 N405A (influenza A virus H3N2, UniProt O11283 17-566). The experiment in a line: FACS on HEK293F [D00010 FIG. 8B].
The target of assay [4] is miniHA cluster1+4 (A/Brisbane/59/2007) (influenza A virus H1N1, UniProt A8C8J4 18-565). The experiment in a line: FACS on HEK293F.
For assay [5], the target named is full-length HA of H1 A/Brisbane/59/2007 with cleavage site mutation R343Q (influenza A virus H1N1, UniProt B4URD6 18-565). The experiment in a line: FACS, HEK293F cells.
Assay [6] concerns the target H3 Mini-HA cluster 1+2+3+4+5+6+7-N405D (influenza A virus H3N2, UniProt O11283 17-566). The experiment in a line: FACS, HEK293F cells. (In general: In flow cytometry, cells or beads pass a laser one at a time.)
Assay [7] concerns the target H3 Mini-HA cluster 1+2+3+4+5+6+7-N405A (influenza A virus H3N2, UniProt O11283 17-566). The experiment in a line: FACS, HEK293F cells.
For assay [8], the target named is H3 Mini-HA cluster 1+2+3+4+5+6+7-N405E (influenza A virus H3N2, UniProt O11283 17-566). The experiment in a line: FACS, HEK293F cells.

B1: CR8057 (antibody, V domains shown)
VH: EVQLVESGGGLVQPGGSLRLSCAASGFTDSVIFMSWVRQAPGKGLECVSIIYIDDSTYYADSVKGRFTISRHNSMGTVFLEMNSLRPDDTAVYYCATESGDFGDQTGPYHYYAMDV
VL: QSALTQPASVSGSPGQSITISCTGSSGDIGGYNAVSWYQHHPGKAPKLMIYEVTSRPSGVSDRFSASRSGDTASLTVSGLQAEDEAHYYCCSFADSNILI
For the molecule B1, the binding result in assay [1] is “no binding (tested: 5 ug/ml)”; in assay [2], “no binding (tested: 5 ug/ml)”; in assay [3] it was “no binding (tested: 5 ug/ml)”; in assay [4] it was “no binding (tested: 5 ug/ml)”; in assay [5] it was “no binding (tested: 5 microgram/ml)”.

B2: CR9114 (antibody, V domains shown)
VH: QVQLVQSGAEVKKPGSSVKVSCKSSGGTSNNYAISWVRQAPGQGLDWMGGISPIFGSTAYAQKFQGRVTISADIFSNTAYMELNSLTSEDTAVYFCARHGNYYYYSGMDVWGQGTTVTVSS
VL: SYVLTQPPAVSGTPGQRVTISCSGSDSNIGRRSVNWYQQFPGTAPKLLIYSNDQRPSVVPDRFSGSKSGTSASLAISGLQSEDEAEYYCAAWDDSLKGAVFGGGTQLTVL
For the molecule B2, the binding result in assay [1] is “no binding (tested: 5 ug/ml)”; in assay [2] it was “no binding (tested: 5 ug/ml)”; in assay [3] it was “no binding (tested: 5 ug/ml)”; in assay [6], “no binding (tested: 5 microgram/ml)”; in assay [7], “no binding (tested: 5 microgram/ml)”; in assay [8], “no binding (tested: 5 microgram/ml)”.

B3: CR6261 (antibody, V domains shown)
VH: EVQLVESGAEVKKPGSSVKVSCKASGGPFRSYAISWVRQAPGQGPEWMGGIIPIFGTTKYAPKFQGRVTITADDFAGTVYMELSSLRSEDTAMYYCAKHMGYQVRETMDVWGKGTTVTVSS
VL: QSVLTQPPSVSAAPGQKVTISCSGSSSNIGNDYVSWYQQLPGTAPKLLIYDNNKRPSGIPDRFSGSKSGTSATLGITGLQTGDEANYYCATWDRRPTAYVVFGGGTKLTVLG
As to B3, the binding result in assay [1], in assay [2] and in assay [3] was “no binding (tested: 5 ug/ml)” in each case.

These data come from US20160355553A1 (Janssen / Centocor, published 2016).
